{
  "source": "paper PMC8809985",
  "about": "“Preparation and characterization of a fully human monoclonal antibody specific for human tumor necrosis factor alpha” (Bioengineered, 2021)",
  "binders": {"B1": {"name": "Haidalimumab (antibody, V domains shown)", "VH": "EVQLVESGGGLVQPGGSLRLSCAASGFPFSNHWMNWVRQAPGKGLEWVGEIRSKSMNSATHYAESVKGRFTISRDDSKNSLYLQMNSLKTEDTAVYYCARNYYGSTYDHWGQGTLVTVSS", "VL": "EIVLTQSPDFQSVTPKEKVTITCRASQFVGYSIHWYQQKPDQSPKLLIKYASESRSGVPSRFSGSGSGTDFTLTINSLEAEDAATYYCQQSHSWHFTFGQGTKLEIK"}},
  "molecular_target": "recombinant human tumor necrosis factor alpha (Homo sapiens, UniProt P01375)",
  "sequence (P01375 77-233)": "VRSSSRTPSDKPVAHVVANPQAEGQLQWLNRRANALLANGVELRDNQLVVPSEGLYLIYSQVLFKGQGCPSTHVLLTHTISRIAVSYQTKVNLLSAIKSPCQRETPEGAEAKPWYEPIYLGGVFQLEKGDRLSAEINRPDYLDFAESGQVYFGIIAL",
  "experiment": "cell-based or functional assay",
  "note": "Values joined by “and” are separate entries in the source; they are usually repeats but may differ in a detail not shown here. Equal values may be shown once.",
  "data": [
    {"binder": "B1", "values": [
      {"measurement": "EC50 of neutralisation of the cytotoxicity of rhTNFα (1 ng/mL, with actinomycin D 2.5 μg/mL) on L929 cells, MTT; one of three antibody batches", "value": "0.0195 µg/mL and 0.018 µg/mL and 0.0158 µg/mL"}
    ]}
  ]
}
